Data as given in publication PMC8660895, “Hedgehog-Interacting Protein is a multimodal antagonist of Hedgehog signalling” (Nature Communications, 2021).
Values joined by “and” are separate entries in the source; they are usually repeats but may differ in a detail not shown here. Equal entries are not always repeated.

Columns and labels:
[1] = target: T1, HHIP-C (Homo sapiens, UniProt Q96QV1); assay: X-ray crystallography (molecular replacement); type: binding; settings: co-crystallised with 10 mM SOS, pH 8.5; two SOS molecules per chain, same site as heparin
T1 construct: C-terminal domain (beta-propeller + 2 EGF repeats), residues 213-670, C-terminal His6 tag, HEK293T with kifunensine; EndoF1-deglycosylated for crystals; mostly monomer without GAG, anti-parallel dimer in crystal
T1 sequence (Q96QV1 213-670): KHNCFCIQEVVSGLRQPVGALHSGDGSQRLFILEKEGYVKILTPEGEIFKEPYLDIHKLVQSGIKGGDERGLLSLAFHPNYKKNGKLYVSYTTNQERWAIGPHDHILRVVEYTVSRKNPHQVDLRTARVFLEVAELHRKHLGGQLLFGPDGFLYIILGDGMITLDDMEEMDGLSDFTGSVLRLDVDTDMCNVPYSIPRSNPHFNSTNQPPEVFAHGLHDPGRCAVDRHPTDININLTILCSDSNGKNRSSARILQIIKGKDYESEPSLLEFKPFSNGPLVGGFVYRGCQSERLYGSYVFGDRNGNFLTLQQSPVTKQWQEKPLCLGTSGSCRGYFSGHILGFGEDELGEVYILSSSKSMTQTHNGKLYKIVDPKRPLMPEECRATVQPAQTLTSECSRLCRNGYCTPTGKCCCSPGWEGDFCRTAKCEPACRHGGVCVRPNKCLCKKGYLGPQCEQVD

[2] = target: chondroitin sulphate (CS); assay: SPR; settings: GAGs immobilised on the chip; [HHIP-C] 0-40 µM; parent: 0.7 µM
[3] = target: heparan sulphate (HS); assay: SPR; settings: GAGs immobilised on the chip; [HHIP-C] 0-40 µM; parent: 0.5 µM
[4] = target: heparin; assay: SPR; settings: GAGs immobilised on the chip; [HHIP-C] 0-40 µM; parent: 0.2 µM
[5] = target: HHIP N-terminal domain (HHIP-N) (human) (UniProt Q96QV1); assay: SEC-MALS; HHIP-N on S200 10/30 column; 10 mM HEPES pH 7.5, 150 mM NaCl; 48–192 μM injected
[6] = target: T2, HHIP-N (Homo sapiens, UniProt Q96QV1); assay: isothermal titration calorimetry; type: binding; settings: pH 7.5, 25 °C, 150 mM NaCl, 3% isopropanol; PEG length and linkage of the conjugate not told
T2 construct: EndoF1-deglycosylated for crystals
T2 sequence (Q96QV1 39-209): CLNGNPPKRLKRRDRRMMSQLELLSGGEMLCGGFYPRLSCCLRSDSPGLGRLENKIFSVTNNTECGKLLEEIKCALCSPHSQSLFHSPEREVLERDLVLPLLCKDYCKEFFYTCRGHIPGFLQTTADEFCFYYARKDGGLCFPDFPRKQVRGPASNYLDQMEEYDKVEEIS

[7] = target: the molecule itself; assay: AUC; sedimentation velocity; HHIP-C alone at 1 mg/mL; 10 mM HEPES pH 7.5, 120 mM NaCl; 20 °C; c(s) distributions

With `O=S(=O)(O)OC[C@H]1O[C@@](COS(=O)(=O)O)(O[C@H]2O[C@H](COS(=O)(=O)O)[C@@H](OS(=O)(=O)O)[C@H](OS(=O)(=O)O)[C@H]2OS(=O)(=O)O)[C@@H](OS(=O)(=O)O)[C@@H]1OS(=O)(=O)O` [sucrose octasulphate] the “X-ray crystallography (molecular replacement)” value [1] was “We also determined the crystal structure of a HHIP-C:SOS complex”.

Work on “HHIP C-terminal domain (HHIP-C) (from UniProt Q96QV1) K277E; R328E; R350E; K569E; R610E; R613E” yielded a Kd [2] of 30 µM, a Kd [3] of 40 µM and a Kd [4] of 110 µM.

For “HHIP N-terminal domain (HHIP-N) (from UniProt Q96QV1 39-209) (domain or fragment)”, the stoichiometry N [5] was 2.

In the case of PEG-cholesterol, the Kd [6] is reported as 23 µM.

B1: HHIP C-terminal domain (HHIP-C) (domain or fragment, human, UniProt Q96QV1 213-670, looked up)
chain: KHNCFCIQEVVSGLRQPVGALHSGDGSQRLFILEKEGYVKILTPEGEIFKEPYLDIHKLVQSGIKGGDERGLLSLAFHPNYKKNGKLYVSYTTNQERWAIGPHDHILRVVEYTVSRKNPHQVDLRTARVFLEVAELHRKHLGGQLLFGPDGFLYIILGDGMITLDDMEEMDGLSDFTGSVLRLDVDTDMCNVPYSIPRSNPHFNSTNQPPEVFAHGLHDPGRCAVDRHPTDININLTILCSDSNGKNRSSARILQIIKGKDYESEPSLLEFKPFSNGPLVGGFVYRGCQSERLYGSYVFGDRNGNFLTLQQSPVTKQWQEKPLCLGTSGSCRGYFSGHILGFGEDELGEVYILSSSKSMTQTHNGKLYKIVDPKRPLMPEECRATVQPAQTLTSECSRLCRNGYCTPTGKCCCSPGWEGDFCRTAKCEPACRHGGVCVRPNKCLCKKGYLGPQCEQVD
notes: Cloned in pHLsec; For crystallisation the protein was deglycosylated with endoglycosidase F1; also called HHIP-C WT; apo HHIP-C; source: HEK293T, transient transfection with kifunensine, purified from conditioned medium (HisTrap, SEC)
B1 was tested, and the “stoichiometry N” value [7] was 2 and 3.
